# Results from patent US20140348819A1, “Methods of Treating Cancer” (Dana-Farber Cancer Institute, Inc., priority 2011, published 2014).
# System: six V600E BRAF melanoma cell lines
# Experiment: Screening of recombinant RTK ligands for ability to confer resistance to BRAFi (PLX4720) or MEKi (PD184352) (Table 4)
# Format: cell-based, human
# Set-up: ability of recombinant RTK ligand to confer resistance / ability of recombinant RTK ligand to confer resistance (screening value): scale not given here
# Procedure: HGF is the only one that can substantially confer drug resistance to the cell lines.
# The complexity of the tumor microenvironment is much greater than an in vitro co-culture system. Therefore, the inventors explored whether the activation of other RTKs could result in a similar resistance as that observed with the activation of MET. To this end, six V600E BRAF melanoma cell lines were tested for their resistance to either BRAFi (PLX4720) or MEKi (PD184352) after the addition of 22 RTK ligands that have the potential of activating almost all known RTKs. […] The activation of a selected subset of these RTKs was confirmed by western blotting and by high throughput tyrosine kinase phosphorylation profiling.
molecule,measurement,setting,value
"Angiopoietin-1 (protein, UniProt Q15389 16-498, looked up) Angiopoietin-1: HIGCSNQRRSPENSGRRYNRIQHGQCAYTFILPEHDGNCRESTTDQYNTNALQRDAPHVEPDFSSQKLQHLEHVMENYTQWLQKLENYIVENMKSEMAQIQQNAVQNHTATMLEIGTSLLSQTAEQTRKLTDVETQVLNQTSRLEIQLLENSLSTYKLEKQLLQQTNEILKIHEKNSLLEHKILEMEGKHKEELDTLKEEKENLQGLVTRQTYIIQELEKQLNRATTNNSVLQKQQLELMDTVHNLVNLCTKEGVLLKGGKREEEKPFRDCADVYQAGFNKSGIYTIYINNMPEPKKVFCNMDVNGGGWTVIQHREDGSLDFQRGWKEYKMGFGNPSGEYWLGNEFIFAITSQRQYMLRIELMDWEGNRAYSQYDRFHIGNEKQNYRLYLKGHTGTAGKQSSLILHGADFSTKDADNDNCMCKCALMLTGGWWFDACGPSNLNGMFYTAGQNHGKLNGIKWHYFKGPSYSLRSTTMMIRPLDF",ability of recombinant RTK ligand to confer resistance,"A2058, PD184352 - 1 uM, ligand 1.56 ng/ml",1.02
same,ability of recombinant RTK ligand to confer resistance,"A2058, PD184352 - 1 uM, ligand 6.25 ng/ml",1.03
same,ability of recombinant RTK ligand to confer resistance,"A2058, PD184352 - 1 uM, ligand 25 ng/ml",0.96
same,ability of recombinant RTK ligand to confer resistance,"A2058, PD184352 - 1 uM, ligand 100 ng/ml",0.99
same,ability of recombinant RTK ligand to confer resistance,"A2058, PD184352 - 1 uM, ligand 400 ng/ml",0.90
same,ability of recombinant RTK ligand to confer resistance,"A2058, PLX4720 - 2 uM, ligand 1.56 ng/ml",1.02
same,ability of recombinant RTK ligand to confer resistance,"A2058, PLX4720 - 2 uM, ligand 6.25 ng/ml",1.02
same,ability of recombinant RTK ligand to confer resistance,"A2058, PLX4720 - 2 uM, ligand 25 ng/ml",0.91
same,ability of recombinant RTK ligand to confer resistance,"A2058, PLX4720 - 2 uM, ligand 100 ng/ml",0.97
same,ability of recombinant RTK ligand to confer resistance,"A2058, PLX4720 - 2 uM, ligand 400 ng/ml",0.96
same,ability of recombinant RTK ligand to confer resistance,"C32, PD184352 - 1 uM, ligand 1.56 ng/ml",1.08
same,ability of recombinant RTK ligand to confer resistance,"C32, PD184352 - 1 uM, ligand 6.25 ng/ml",1.07
same,ability of recombinant RTK ligand to confer resistance,"C32, PD184352 - 1 uM, ligand 25 ng/ml",1.02
same,ability of recombinant RTK ligand to confer resistance,"C32, PD184352 - 1 uM, ligand 100 ng/ml",1.07
same,ability of recombinant RTK ligand to confer resistance,"C32, PD184352 - 1 uM, ligand 400 ng/ml",0.98
same,ability of recombinant RTK ligand to confer resistance,"C32, PLX4720 - 2 uM, ligand 1.56 ng/ml",1.20
same,ability of recombinant RTK ligand to confer resistance,"C32, PLX4720 - 2 uM, ligand 6.25 ng/ml",1.09
same,ability of recombinant RTK ligand to confer resistance,"C32, PLX4720 - 2 uM, ligand 25 ng/ml",1.14
same,ability of recombinant RTK ligand to confer resistance,"C32, PLX4720 - 2 uM, ligand 100 ng/ml",1.08
same,ability of recombinant RTK ligand to confer resistance,"C32, PLX4720 - 2 uM, ligand 400 ng/ml",0.99
same,ability of recombinant RTK ligand to confer resistance,"Colo 829, PD184352 - 1 uM, ligand 1.56 ng/ml",0.94
same,ability of recombinant RTK ligand to confer resistance,"Colo 829, PD184352 - 1 uM, ligand 6.25 ng/ml",0.97
same,ability of recombinant RTK ligand to confer resistance,"Colo 829, PD184352 - 1 uM, ligand 25 ng/ml",0.97
same,ability of recombinant RTK ligand to confer resistance,"Colo 829, PD184352 - 1 uM, ligand 100 ng/ml",0.93
same,ability of recombinant RTK ligand to confer resistance,"Colo 829, PD184352 - 1 uM, ligand 400 ng/ml",0.97
same,ability of recombinant RTK ligand to confer resistance,"Colo 829, PLX4720 - 2 uM, ligand 1.56 ng/ml",0.93
same,ability of recombinant RTK ligand to confer resistance,"Colo 829, PLX4720 - 2 uM, ligand 6.25 ng/ml",0.97
same,ability of recombinant RTK ligand to confer resistance,"Colo 829, PLX4720 - 2 uM, ligand 25 ng/ml",0.95
same,ability of recombinant RTK ligand to confer resistance,"Colo 829, PLX4720 - 2 uM, ligand 100 ng/ml",0.94
same,ability of recombinant RTK ligand to confer resistance,"Colo 829, PLX4720 - 2 uM, ligand 400 ng/ml",1.05
same,ability of recombinant RTK ligand to confer resistance,"G-361, PD184352 - 1 uM, ligand 1.56 ng/ml",0.98
same,ability of recombinant RTK ligand to confer resistance,"G-361, PD184352 - 1 uM, ligand 6.25 ng/ml",0.96
same,ability of recombinant RTK ligand to confer resistance,"G-361, PD184352 - 1 uM, ligand 25 ng/ml",0.92
same,ability of recombinant RTK ligand to confer resistance,"G-361, PD184352 - 1 uM, ligand 100 ng/ml",0.95
same,ability of recombinant RTK ligand to confer resistance,"G-361, PD184352 - 1 uM, ligand 400 ng/ml",0.75
same,ability of recombinant RTK ligand to confer resistance,"G-361, PLX4720 - 2 uM, ligand 1.56 ng/ml",1.02
same,ability of recombinant RTK ligand to confer resistance,"G-361, PLX4720 - 2 uM, ligand 6.25 ng/ml",0.96
same,ability of recombinant RTK ligand to confer resistance,"G-361, PLX4720 - 2 uM, ligand 25 ng/ml",0.97
same,ability of recombinant RTK ligand to confer resistance,"G-361, PLX4720 - 2 uM, ligand 100 ng/ml",0.83
same,ability of recombinant RTK ligand to confer resistance,"G-361, PLX4720 - 2 uM, ligand 400 ng/ml",0.84
same,ability of recombinant RTK ligand to confer resistance,"SK-MEL-5, PD184352 - 1 uM, ligand 1.56 ng/ml",1.03
same,ability of recombinant RTK ligand to confer resistance,"SK-MEL-5, PD184352 - 1 uM, ligand 6.25 ng/ml",0.93
same,ability of recombinant RTK ligand to confer resistance,"SK-MEL-5, PD184352 - 1 uM, ligand 25 ng/ml",0.95
same,ability of recombinant RTK ligand to confer resistance,"SK-MEL-5, PD184352 - 1 uM, ligand 100 ng/ml",0.92
same,ability of recombinant RTK ligand to confer resistance,"SK-MEL-5, PD184352 - 1 uM, ligand 400 ng/ml",0.87
same,ability of recombinant RTK ligand to confer resistance,"SK-MEL-5, PLX4720 - 2 uM, ligand 1.56 ng/ml",1.05
same,ability of recombinant RTK ligand to confer resistance,"SK-MEL-5, PLX4720 - 2 uM, ligand 6.25 ng/ml",1.02
same,ability of recombinant RTK ligand to confer resistance,"SK-MEL-5, PLX4720 - 2 uM, ligand 25 ng/ml",0.98
same,ability of recombinant RTK ligand to confer resistance,"SK-MEL-5, PLX4720 - 2 uM, ligand 100 ng/ml",1.03
same,ability of recombinant RTK ligand to confer resistance,"SK-MEL-5, PLX4720 - 2 uM, ligand 400 ng/ml",1.04
same,ability of recombinant RTK ligand to confer resistance,"SK-MEL-28, PD184352 - 1 uM, ligand 1.56 ng/ml",1.09
same,ability of recombinant RTK ligand to confer resistance,"SK-MEL-28, PD184352 - 1 uM, ligand 6.25 ng/ml",1.04
same,ability of recombinant RTK ligand to confer resistance,"SK-MEL-28, PD184352 - 1 uM, ligand 25 ng/ml",1.12
same,ability of recombinant RTK ligand to confer resistance,"SK-MEL-28, PD184352 - 1 uM, ligand 100 ng/ml",0.98
same,ability of recombinant RTK ligand to confer resistance,"SK-MEL-28, PD184352 - 1 uM, ligand 400 ng/ml",0.96
same,ability of recombinant RTK ligand to confer resistance,"SK-MEL-28, PLX4720 - 2 uM, ligand 1.56 ng/ml",1.05
same,ability of recombinant RTK ligand to confer resistance,"SK-MEL-28, PLX4720 - 2 uM, ligand 6.25 ng/ml",0.96
same,ability of recombinant RTK ligand to confer resistance,"SK-MEL-28, PLX4720 - 2 uM, ligand 25 ng/ml",1.02
same,ability of recombinant RTK ligand to confer resistance,"SK-MEL-28, PLX4720 - 2 uM, ligand 100 ng/ml",0.96
same,ability of recombinant RTK ligand to confer resistance,"SK-MEL-28, PLX4720 - 2 uM, ligand 400 ng/ml",0.99
